B1: 4QI-TBA-E:TBA-C9 duplex (dsDNA)
DNA 1: GGTTGGTGTGGTTGGT
DNA 2: ACACCAACC
modifications: 5'-4QI on aptamer strand; extra 3' dT

Experiments:
[1] = molecular target: T1, thrombin (Bos taurus, UniProt P00735;P00735 P00735:318-366,P00735:367-625); assay: FP; K+ phosphate buffer pH 7.0, 20 C; Table 6 lists 1.5±0.3 uM; conditions: tags: bovine thrombin dry powder, Sigma Aldrich; label: 5'-4QI; antiparallel G4
[2] = molecular target: T1, thrombin; assay: FP; K+ phosphate buffer pH 7.0; duplex to G4 exchange, 36% fluorescence increase; conditions: tags: bovine thrombin dry powder, Sigma Aldrich; label: 5'-4QI; partial duplex with 9-mer complement, 3' ssDNA

Binder | Kd [1] | Kd [2]
GGTTGGTGTGGTTGGT (structured_DNA, 5'-4QI merocyanine end-label; extra 3' dT) [4QI-TBA-E] | 1100 nM | –
B1 | – | 1300 nM

Source: US20200378979, “FLUORESCENT MEROCYANINE DYES, ASSOCIATED CONJUGATES AND METHODS” (University of Guelph, published 2020)
